Laboratory results taken from article PMC9482650, “Quantitative fragmentomics allow affinity mapping of interactomes” (Nature Communications, 2022).

T1: APBA1_2, Q02410
T1 sequence (Q02410 742-832, limits assumed, looked up): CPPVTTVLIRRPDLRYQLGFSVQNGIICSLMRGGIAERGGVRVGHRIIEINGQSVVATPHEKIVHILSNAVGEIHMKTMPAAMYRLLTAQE

T2: ARHGEF11, O15085
T2 sequence (O15085 42-136, limits assumed, looked up): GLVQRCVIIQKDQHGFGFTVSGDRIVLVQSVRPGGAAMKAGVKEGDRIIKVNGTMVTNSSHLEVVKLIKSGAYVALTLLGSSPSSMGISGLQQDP

T3: GRIP1_2, Q9Y3R0
T3 sequence (Q9Y3R0 145-248, limits assumed, looked up): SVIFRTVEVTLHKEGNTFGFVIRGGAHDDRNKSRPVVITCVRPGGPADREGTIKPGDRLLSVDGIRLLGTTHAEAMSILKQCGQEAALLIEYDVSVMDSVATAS

T4: GRIP1_3, Q9Y3R0
T4 sequence (Q9Y3R0 247-346, limits assumed, looked up): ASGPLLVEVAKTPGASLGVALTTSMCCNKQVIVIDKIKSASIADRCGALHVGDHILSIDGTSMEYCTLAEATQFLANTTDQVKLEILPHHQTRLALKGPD

T5: LRRC7, Q96NW7
T5 sequence (Q96NW7 1440-1537, limits assumed, looked up): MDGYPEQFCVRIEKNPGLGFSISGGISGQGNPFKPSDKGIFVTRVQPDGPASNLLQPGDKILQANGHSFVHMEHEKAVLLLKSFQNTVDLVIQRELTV

T6: MPDZ_12, O75970
T6 sequence (O75970 1857-1958, limits assumed, looked up): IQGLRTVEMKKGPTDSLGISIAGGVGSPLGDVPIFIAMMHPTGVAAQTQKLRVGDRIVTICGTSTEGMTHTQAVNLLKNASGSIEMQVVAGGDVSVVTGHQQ

T7: PDZRN3_1, Q9UPQ7
T7 sequence (Q9UPQ7 244-349, limits assumed, looked up): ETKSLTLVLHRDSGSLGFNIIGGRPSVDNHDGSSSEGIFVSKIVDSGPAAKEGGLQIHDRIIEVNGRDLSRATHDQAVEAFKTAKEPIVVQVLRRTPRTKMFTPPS

T8: PTPN13_1, Q12923
T8 sequence (Q12923 1088-1188, limits assumed, looked up): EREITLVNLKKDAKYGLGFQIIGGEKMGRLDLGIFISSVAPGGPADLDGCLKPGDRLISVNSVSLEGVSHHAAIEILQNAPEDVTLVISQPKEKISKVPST

T9: RADIL, Q96JH8
T9 sequence (Q96JH8 971-1071, limits assumed, looked up): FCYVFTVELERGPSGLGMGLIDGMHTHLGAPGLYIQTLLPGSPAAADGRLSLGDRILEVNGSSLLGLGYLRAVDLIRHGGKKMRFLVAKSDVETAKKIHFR

T10: RHPN1, Q8TCX5
T10 sequence (Q8TCX5 508-602, limits assumed, looked up): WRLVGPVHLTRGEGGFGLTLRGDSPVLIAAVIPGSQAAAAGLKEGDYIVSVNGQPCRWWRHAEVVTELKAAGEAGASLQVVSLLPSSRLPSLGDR

T11: SNTB1, Q13884
T11 sequence (Q13884 107-205, limits assumed, looked up): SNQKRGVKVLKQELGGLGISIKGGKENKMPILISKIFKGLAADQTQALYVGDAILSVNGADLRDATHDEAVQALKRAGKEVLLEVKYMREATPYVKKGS

T12: SNTG2, Q9NY99
T12 sequence (Q9NY99 68-166, limits assumed, looked up): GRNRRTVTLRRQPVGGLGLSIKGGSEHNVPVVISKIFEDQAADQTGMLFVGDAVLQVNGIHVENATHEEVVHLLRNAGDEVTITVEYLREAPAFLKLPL


What was measured:
Assay in all cases: holdup assay
Design in all cases: key: below the threshold = too weak to quantify, mostly under pKd 3.1 to 4
Conditions in all cases: plain residues with an end cap or a label only (N-terminal biotin on a linker: ado-ado)
APBA1_2, Q02410 = target: T1, APBA1_2, Q02410
ARHGEF11, O15085 = target: T2, ARHGEF11, O15085
ARHGEF12, Q9NZN5-2 = target: ARHGEF12, Q9NZN5-2
CASK, O14936 = target: CASK, O14936
DLG1_1, Q12959 = target: DLG1_1, Q12959
DLG2_2, Q15700 = target: DLG2_2, Q15700
DLG4_2, P78352 = target: DLG4_2, P78352
DLG5_1, Q8TDM6 = target: DLG5_1, Q8TDM6
GRIP1_2, Q9Y3R0 = target: T3, GRIP1_2, Q9Y3R0
GRIP1_3, Q9Y3R0 = target: T4, GRIP1_3, Q9Y3R0
Inadl_10, Q8NI35 = target: Inadl_10, Q8NI35
Inadl_4, Q8NI35 = target: Inadl_4, Q8NI35
LRRC7, Q96NW7 = target: T5, LRRC7, Q96NW7
MAGI2_3, Q86UL8 = target: MAGI2_3, Q86UL8
MAGI2_5, Q86UL8 = target: MAGI2_5, Q86UL8
MPDZ_12, O75970 = target: T6, MPDZ_12, O75970
NHERF4_2, Q86UT5 = target: NHERF4_2, Q86UT5
PARD3_3, Q8TEW0 = target: PARD3_3, Q8TEW0
PDZRN3_1, Q9UPQ7 = target: T7, PDZRN3_1, Q9UPQ7
PTPN13_1, Q12923 = target: T8, PTPN13_1, Q12923
RADIL, Q96JH8 = target: T9, RADIL, Q96JH8
RHPN1, Q8TCX5 = target: T10, RHPN1, Q8TCX5
SCRIB_1, Q14160 = target: SCRIB_1, Q14160
SCRIB_3, Q14160 = target: SCRIB_3, Q14160
SNTB1, Q13884 = target: T11, SNTB1, Q13884
SNTG2, Q9NY99 = target: T12, SNTG2, Q9NY99

Sequence of CASK, O14936 (O14936 487-570): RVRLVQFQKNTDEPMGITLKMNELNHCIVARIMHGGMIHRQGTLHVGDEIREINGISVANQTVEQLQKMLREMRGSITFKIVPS
Sequence of MAGI2_3, Q86UL8 (Q86UL8 600-682): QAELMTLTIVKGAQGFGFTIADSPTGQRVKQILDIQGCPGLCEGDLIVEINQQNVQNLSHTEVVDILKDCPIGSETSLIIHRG
Sequence of NHERF4_2, Q86UT5 (Q86UT5 220-308): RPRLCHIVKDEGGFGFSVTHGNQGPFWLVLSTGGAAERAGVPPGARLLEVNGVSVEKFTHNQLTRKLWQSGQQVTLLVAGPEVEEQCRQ
Sequence of MAGI2_5, Q86UL8 (Q86UL8 915-1017): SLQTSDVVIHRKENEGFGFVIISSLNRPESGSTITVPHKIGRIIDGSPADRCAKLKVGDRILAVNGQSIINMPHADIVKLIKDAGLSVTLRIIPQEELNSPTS
Sequence of SCRIB_1, Q14160 (Q14160 718-814): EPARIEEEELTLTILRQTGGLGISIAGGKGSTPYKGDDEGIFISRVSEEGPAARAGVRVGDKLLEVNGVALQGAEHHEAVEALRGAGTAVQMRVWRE
Sequence of DLG2_2, Q15700 (Q15700 189-283): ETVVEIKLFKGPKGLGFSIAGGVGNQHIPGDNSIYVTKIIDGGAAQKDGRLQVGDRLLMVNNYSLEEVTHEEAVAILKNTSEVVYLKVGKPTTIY
Sequence of PARD3_3, Q8TEW0 (Q8TEW0 582-685): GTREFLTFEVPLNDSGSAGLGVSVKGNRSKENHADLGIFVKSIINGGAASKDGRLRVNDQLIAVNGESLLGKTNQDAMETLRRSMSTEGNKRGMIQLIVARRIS
Sequence of SCRIB_3, Q14160 (Q14160 999-1103): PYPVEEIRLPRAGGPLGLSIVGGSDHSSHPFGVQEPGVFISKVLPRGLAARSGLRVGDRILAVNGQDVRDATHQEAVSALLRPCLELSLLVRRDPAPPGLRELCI
Sequence of Inadl_4, Q8NI35 (Q8NI35 547-651): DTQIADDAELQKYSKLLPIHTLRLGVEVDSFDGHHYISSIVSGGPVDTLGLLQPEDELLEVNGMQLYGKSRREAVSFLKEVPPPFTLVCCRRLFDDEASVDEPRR
Sequence of ARHGEF12, Q9NZN5-2 (Q9NZN5 other isoform, or with tags, fused parts or gaps): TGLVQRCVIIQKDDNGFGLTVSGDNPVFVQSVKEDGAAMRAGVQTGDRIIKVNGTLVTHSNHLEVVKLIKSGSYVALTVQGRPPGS
Sequence of DLG5_1, Q8TDM6 (Q8TDM6 617-713): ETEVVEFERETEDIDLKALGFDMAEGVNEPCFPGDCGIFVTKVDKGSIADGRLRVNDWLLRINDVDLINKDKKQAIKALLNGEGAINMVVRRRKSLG
Sequence of Inadl_10, Q8NI35 (Q8NI35 1673-1763): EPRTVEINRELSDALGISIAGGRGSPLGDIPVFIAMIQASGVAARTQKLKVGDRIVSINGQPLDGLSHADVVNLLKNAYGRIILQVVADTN
Sequence of DLG4_2, P78352 (P78352 155-259): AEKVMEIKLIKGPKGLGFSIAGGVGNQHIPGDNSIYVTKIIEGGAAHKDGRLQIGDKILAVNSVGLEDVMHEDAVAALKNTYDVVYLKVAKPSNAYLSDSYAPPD

pKd (APBA1_2, Q02410)	pKd (ARHGEF11, O15085)	pKd (ARHGEF12, Q9NZN5-2)	pKd (CASK, O14936)	pKd (DLG1_1, Q12959)	pKd (DLG2_2, Q15700)	pKd (DLG4_2, P78352)	pKd (DLG5_1, Q8TDM6)	pKd (GRIP1_2, Q9Y3R0)	pKd (GRIP1_3, Q9Y3R0)	pKd (Inadl_10, Q8NI35)	pKd (Inadl_4, Q8NI35)	pKd (LRRC7, Q96NW7)	pKd (MAGI2_3, Q86UL8)	pKd (MAGI2_5, Q86UL8)	pKd (MPDZ_12, O75970)	pKd (NHERF4_2, Q86UT5)	pKd (PARD3_3, Q8TEW0)	pKd (PDZRN3_1, Q9UPQ7)	pKd (PTPN13_1, Q12923)	Binder	other results
3.92	4.45	4.68	below the threshold	4.42	4.79	5.08	below the threshold	below the threshold	below the threshold	below the threshold	below the threshold	below the threshold	4.25	below the threshold	below the threshold	below the threshold	below the threshold	3.71	below the threshold	SAKVRTVTSV [RASL11B, Q9BPW5]	pKd (RADIL, Q96JH8): 3.94; pKd (RHPN1, Q8TCX5): 3.83; pKd (SCRIB_1, Q14160): 4.17; pKd (SCRIB_3, Q14160): 4.33; pKd (SNTB1, Q13884): 3.64; pKd (SNTG2, Q9NY99): 3.6
below the threshold	below the threshold	below the threshold	below the threshold	below the threshold	below the threshold	below the threshold	below the threshold	below the threshold	below the threshold	below the threshold	below the threshold	below the threshold	below the threshold	below the threshold	below the threshold	below the threshold	below the threshold	below the threshold	below the threshold	SKSNFGSEPL [KIF17, Q9P2E2]	pKd (RADIL, Q96JH8): below the threshold; pKd (RHPN1, Q8TCX5): below the threshold; pKd (SCRIB_1, Q14160): below the threshold; pKd (SCRIB_3, Q14160): below the threshold; pKd (SNTB1, Q13884): below the threshold; pKd (SNTG2, Q9NY99): below the threshold
4.32	5.09	4.77	below the threshold	4.53	4.9	5.07	below the threshold	below the threshold	below the threshold	3.58	below the threshold	3.89	3.94	4.47	below the threshold	3.59	below the threshold	3.5	below the threshold	PDGQCTVTEV [RNF146, Q9NTX7]	pKd (RADIL, Q96JH8): 4.62; pKd (RHPN1, Q8TCX5): 4.68; pKd (SCRIB_1, Q14160): 4.68; pKd (SCRIB_3, Q14160): 4.72; pKd (SNTB1, Q13884): 4.37; pKd (SNTG2, Q9NY99): 3.98
3.54	4.04	3.98	below the threshold	3.82	3.74	3.97	below the threshold	below the threshold	below the threshold	below the threshold	below the threshold	below the threshold	4.1	below the threshold	below the threshold	below the threshold	below the threshold	3.78	below the threshold	LPHGHSTTRV [NLGN4X, Q8N0W4]	pKd (RADIL, Q96JH8): 3.7; pKd (RHPN1, Q8TCX5): 4.04; pKd (SCRIB_1, Q14160): below the threshold; pKd (SCRIB_3, Q14160): below the threshold; pKd (SNTB1, Q13884): 4.27; pKd (SNTG2, Q9NY99): 4
below the threshold	3.7	below the threshold	below the threshold	below the threshold	below the threshold	below the threshold	below the threshold	below the threshold	below the threshold	below the threshold	below the threshold	below the threshold	below the threshold	below the threshold	below the threshold	below the threshold	below the threshold	below the threshold	below the threshold	DTTVPESEDL [MYOZ2, Q9NPC6]	pKd (RADIL, Q96JH8): below the threshold; pKd (RHPN1, Q8TCX5): below the threshold; pKd (SCRIB_1, Q14160): below the threshold; pKd (SCRIB_3, Q14160): below the threshold; pKd (SNTB1, Q13884): below the threshold; pKd (SNTG2, Q9NY99): below the threshold
5.02	4.3	3.62	below the threshold	below the threshold	3.62	4.03	below the threshold	below the threshold	below the threshold	below the threshold	below the threshold	4.03	below the threshold	below the threshold	4.39	below the threshold	3.73	below the threshold	below the threshold	YYKRPVQEWV [MMP24, Q9Y5R2]	pKd (RADIL, Q96JH8): 5.63; pKd (RHPN1, Q8TCX5): below the threshold; pKd (SCRIB_1, Q14160): below the threshold; pKd (SCRIB_3, Q14160): 3.52; pKd (SNTB1, Q13884): below the threshold; pKd (SNTG2, Q9NY99): below the threshold
